This series has as its system MS2 coat protein. The experiment in a line: apparent KD of MS2 coat protein; designed switch direction (-1 OFF switch, 1 ON switch): 1; higher = weaker reporter binding. In outline: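 The apparent KD reported per design is the median over clusters of curve fits to normalised cluster fluorescence. The RNA switches were transcribed on Illumina chips by stalled E. coli RNA polymerase. SNAP-549-labelled MS2 coat protein was titrated from 0.7 or 1.5 nM, doubling up to 3 µM, in Tris-HCl pH 7.5 buffer containing KCl, MgCl2, BSA, DTT, tRNA and Tween-20, with no input, 200 uM small-molecule ligand, or an oligonucleotide input.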

Setting [1] is: Eterna round: R95, input ligand: FMN 200 uM.
The mark [2] stands for this setting: Eterna round: R95, input ligand: microRNA oligo, concentration not stated.
The mark [3] stands for this setting: Eterna round: R95, input ligand: none.
Where [4] appears, read: input ligand: microRNA oligo, concentration not stated.

The results in this text go back to the supplement of paper PMC9170038.

Take “CGGGUACAUGAGGAUCACCCAUGUUGGAGUAAUGCAGGAUAUGUGAGACGAGAUGAUAAAACAGAAGGGCAAGGAG [JR_SS!_Sub010] (puzzle: Same State 1)”: the “apparent KD of MS2 coat protein” value worked out at 50.2 nM under setting [1], 70.5 nM under setting [2] and 123 nM under setting [3].

Take “CGGGUCGUGCUAGGAUAUCUAGGAUAUGGACGAGGAUUACCCGAGCAGCAUUAGCGCACCAGAGGAGAGAAGGAGCGUGAUGCG [pwkr ssNG2 2F5 2FMN.15] (Eterna round: R96, puzzle: Same State NG 2)”: the “apparent KD of MS2 coat protein” value stood at 287 nM (input ligand: FMN 200 uM), 42.2 nM under setting [4] and 109 nM (input ligand: none).

On to “CGUCCAGCCUGAGCUGGACAAAAGCAUGUACAUGAGGAUCACCCAUGUUCAUGUACAAGCUUUUUGCUCGUCUUACG [salish99_208a_r3_093x] (puzzle: Sensor for hsa-mir-208a)”, for which the “apparent KD of MS2 coat protein” value was found to be 507 nM under setting [1], 16.7 nM under setting [2] and 617 nM under setting [3].

With “CGUCCGGCCUGAGCUGGACGGAGGCAUGUACAUGAGGAUCACCCAUGUUCAUGUGCAGGCUUUUUGCUCGUCUUGUG [JL-shm-2.07 JL mod] (Eterna round: R96, puzzle: Sensor for hsa-mir-208a)”, the “apparent KD of MS2 coat protein” value runs as follows: (input ligand: FMN 200 uM) 62.8 nM; under setting [4], 10.6 nM; (input ligand: none) 57.8 nM.

For “CGUCCGGCCUGAGCUGGACGGAGGCAUGUACAUGAGGAUCACCCAUGUUCAUGUGCAGGCUUUUUGCUCGUCUUGUG [JL-shm-2.07 JL mod] (puzzle: Sensor for hsa-mir-208a)”, the “apparent KD of MS2 coat protein” value turned out to be 53 nM under setting [1], 10.9 nM under setting [2] and 54.2 nM under setting [3].

“CGUCCGGCCUGUGCUGGACGGAAGCAUGUACAUGAGGAUCACCCAUGUUCAUGUGCAGGCUUUUUGCUCGUCUUGUG [salish99_mir208a_modof_jandersonlee_005] (puzzle: Sensor for hsa-mir-208a)”: the “apparent KD of MS2 coat protein” value was 102 nM under setting [1], 13.4 nM under setting [2] and 117 nM under setting [3].

As to “CGUCCGGCCUGUGCUGGCCGGUUGCAUGUACAUGAGGAUCACCCAUGUUCAUGUGCAGGCUUUUUGCUCGUCUUGUG [salish99_mir208a_013] (puzzle: Sensor for hsa-mir-208a)”, the “apparent KD of MS2 coat protein” value is, setting by setting: under setting [1], 19.4 nM; under setting [2], 11.2 nM; under setting [3], 18.9 nM.

Turning to “CGUCGUUUGAUAGGAUAUCGCUUUACAUGAGGAUCACCCAUGUUUACCACGCUGGUUUUUCUUUCCGAGAAGGAUUCUGAUGUU [salish99_SSNG02_r04_023] (Eterna round: R96, puzzle: Same State NG 2)”, the “apparent KD of MS2 coat protein” value stood at 35.7 nM (input ligand: FMN 200 uM), 25.2 nM under setting [4] and 35.9 nM (input ligand: none).

Take “CGUCGUUUGAUAGGAUAUCGCUUUACAUGCGGAUCACCCAUGUUUACCACGCUGGUUUUUCUUUCCGAGAAGGAUUCUGAUGUU [salish99_SSNG02_r04_026] (Eterna round: R96, puzzle: Same State NG 2)”: the “apparent KD of MS2 coat protein” value (input ligand: FMN 200 uM) was found to be 42 nM, the “apparent KD of MS2 coat protein” value under setting [4] was found to be 10.1 nM and the “apparent KD of MS2 coat protein” value (input ligand: none) was determined as 134 nM.

Regarding “CGUCGUUUGCUAGGAUAUCGCUAUACAUGAGGAUCACCCAUGUUUACCACGCUGGUUUUUCAUACCGAGAAGGAGUCUGAUGUU [salish99_SSNG02_r04_020] (Eterna round: R96, puzzle: Same State NG 2)”, the “apparent KD of MS2 coat protein” value stood at 28.8 nM (input ligand: FMN 200 uM), 24.8 nM under setting [4] and 33 nM (input ligand: none).

In the case of “CGUGGGUGGCUGGAGGAUAUUCGAGUGGUAACAUGAGGAUCACCCAUGUGUCGCGCGGUACACGAGGAGAAGGCUGGCGGCCGGC (puzzle: Same State 2)”, the “apparent KD of MS2 coat protein” value under setting [1] was 34.6 nM, the “apparent KD of MS2 coat protein” value under setting [2] is 109 nM and the “apparent KD of MS2 coat protein” value under setting [3] stood at 256 nM.

As for “CUAUCUACAGGUGUCUUUGCUCGUCUUAUACAUGAGGAUCACCCAUGUUAUAGCCCGGUGCUUGCGCUGGGCUGAUU [JL ViennaUCT Tearor mod 6] (puzzle: Sensor for hsa-mir-208a)”, the “apparent KD of MS2 coat protein” value worked out at 79.8 nM under setting [1], 13.2 nM under setting [2] and 95.7 nM under setting [3].

Take “CUAUCUACAGGUUUCAGUGCUCGUCUUAUACAUGAGGAUCACCCAUGUUAUAGCCCGGUGCUUGCGCUGGGCUGAUU [JL ViennaUCT Tearor mod 3] (puzzle: Sensor for hsa-mir-208a)”: the “apparent KD of MS2 coat protein” value runs as follows: under setting [1], 31.4 nM; under setting [2], 14.8 nM; under setting [3], 39.3 nM.

As to “CUAUGACAUGAGGAUCACCCAUGUGAUAAUUUCAUAGGAUAUACGGCGCCGUUAAGGGCCGUAGAAGGGUGAUCGA [Veonti] (puzzle: Same State 1)”, the “apparent KD of MS2 coat protein” value runs as follows: under setting [1], 35.4 nM; under setting [2], 30.7 nM; under setting [3], 22.9 nM.

On to “CUCAAACAUGAGGAUCACCCAUGUUUUUUCAUGGGAGGAUAUCUAAGUUCAUUAUAUUCAGGAGAAGGCCUAUGUC [× ×•×ª×• ×ž×“×™× ×” × ×—×ª-07] (puzzle: Same State 1)”, for which the “apparent KD of MS2 coat protein” value reads like this: under setting [1], 159 nM; under setting [2], 729 nM; under setting [3], 261 nM.

As for “CUGAGAAGUCAAGGAUAUCACGUCGAUUAGACGUGAGAAGGUGAUCAUUACAUGAGGAUCACCCAUGUGUUACAUGGAACUCAG [Brourd's SSNG1/1-A2 mod 7] (Eterna round: R96, puzzle: Same State NG 1)”, the “apparent KD of MS2 coat protein” value stood at 672 nM (input ligand: FMN 200 uM), 659 nM under setting [4] and 762 nM (input ligand: none).

As for “CUGAGCAAUCAAGGAUAUCACGUCGAUUAGACGUGAGAAGGUGAUCAUAACAUGAGGAUCACCCAUGUAUUACAUGAAGCUCAG [SSNG1/1-A2] (Eterna round: R96, puzzle: Same State NG 1)”, the “apparent KD of MS2 coat protein” value was found to be 975 nM (input ligand: FMN 200 uM), 692 nM under setting [4] and 740 nM (input ligand: none).

On to “CUGAGCGAUCGAGGAUAUCACGUCGAAUAGACGUGAGAAGGCGAUCAUAACAUGAGGAUCACCCAUGUAUUACAUGAAGCUCAG [SSNG1/4-A1] (Eterna round: R96, puzzle: Same State NG 1)”, for which the “apparent KD of MS2 coat protein” value was 13.2 nM (input ligand: FMN 200 uM), 10.5 nM under setting [4] and 17.8 nM (input ligand: none).

Turning to “CUGCUACAUGAGGAUCACCCAUGUUGGAGUAAUGCAGGAUAUGUGGGACCAGAAGAUAAAACAGAAGGGCAAGGAG [JR_SS!_Sub007] (puzzle: Same State 1)”, the “apparent KD of MS2 coat protein” value by setting is: under setting [1], 18 nM; under setting [2], 14.4 nM; under setting [3], 28.8 nM.

For “CUUCGCGCCGCAGGAUAUGCCGACCCGUGUUGAGCAGAAGGGCGAGACAUGAGGAUCACCCAUGUCUAAAGAGCGCAUCAAUAA [Esedlaedbi] (Eterna round: R96, puzzle: Same State NG 1)”, the “apparent KD of MS2 coat protein” value (input ligand: FMN 200 uM) stood at 23.1 nM, the “apparent KD of MS2 coat protein” value under setting [4] came to 18.9 nM and the “apparent KD of MS2 coat protein” value (input ligand: none) is 45.9 nM.

As for “CUUCUUCCUUUUACAUGAGGAUCACCCAUGUUUUCAUAUUGAGAGGAUAUCGUAUUUGGAAACAUCGAGAAGGCUCAUUUGUAU [JR_SSNG3_Sub074] (Eterna round: R96, puzzle: Same State NG 3)”, the “apparent KD of MS2 coat protein” value was determined as 78.6 nM (input ligand: FMN 200 uM), 98.6 nM under setting [4] and 223 nM (input ligand: none).

As to “GAAGGAUGAGCGUAGGAUAUAGGAGGAGUGACAUGAGGAUCACCCAUGUAGUAGGAGGGAGGGUACUAGAAGGACGAGGAAGAGG [JR_SS2_Sub068] (puzzle: Same State 2)”, the “apparent KD of MS2 coat protein” value amounted to 67 nM under setting [1], 32.2 nM under setting [2] and 57.4 nM under setting [3].

With “GACUAUCUAUCUCAGGAUAUCAUGUCAAAGACAUGAGGAUCACCCAUGUACCAGGAAACUGGUUAUGAGAAGGGAGAUAGAUAGG [Mat - Same State 2 - Mod - D43] (puzzle: Same State 2)”, the “apparent KD of MS2 coat protein” value under setting [1] came out at 81.1 nM, the “apparent KD of MS2 coat protein” value under setting [2] worked out at 26.3 nM and the “apparent KD of MS2 coat protein” value under setting [3] came to 38.8 nM.

With “GACUCUAGAGGAGGAUAUGCAGAGGAUCACCCUGUAGAAGGCCUCAUAAGGAGGAUAUGCAGAGGAUCACCCUGUAGAAGGCCU [pwkr ssNG DX.20] (Eterna round: R96, puzzle: Same State NG 1)”, the “apparent KD of MS2 coat protein” value (input ligand: FMN 200 uM) was found to be 170 nM, the “apparent KD of MS2 coat protein” value under setting [4] worked out at 85.5 nM and the “apparent KD of MS2 coat protein” value (input ligand: none) is 272 nM.

For the sequence “GAGCCAGUCCGAGGAUAUUCAUAUUAAAACAUGAGGAUCACCCAUGUAGGCUCAGAAGAGCCUUGGGAGAAGGCGGACUGGCUC [Xeonanisa] (Eterna round: R96, puzzle: Same State NG 2)”, the “apparent KD of MS2 coat protein” value (input ligand: FMN 200 uM) worked out at 23.3 nM, the “apparent KD of MS2 coat protein” value under setting [4] is 214 nM and the “apparent KD of MS2 coat protein” value (input ligand: none) is 366 nM.

With “GAGGAACAUGAGGAUCACCCAUGUAAAGGGUUUAAAGGAUAUUAUUGGGAGAAAGUAGGGUAAGAAGGUUGAUUGG [JR_SS1_Sub087] (puzzle: Same State 1)”, the “apparent KD of MS2 coat protein” value was determined as 120 nM under setting [1], 127 nM under setting [2] and 168 nM under setting [3].

As to “GAGGGACAGACCAACAUGAGGAUCACCCAUGUCCUCGCAGGUCAGGAUAUUAUGAGGAUCACCCAUGAGAAGGGACGGUGAACC (Eterna round: R96, puzzle: Same State NG 3)”, the “apparent KD of MS2 coat protein” value amounted to 587 nM (input ligand: FMN 200 uM), 340 nM under setting [4] and 491 nM (input ligand: none).
